The target in the test is T1, carboxypeptidase A.
T1 sequence (P00730 111-419, species assumed, looked up): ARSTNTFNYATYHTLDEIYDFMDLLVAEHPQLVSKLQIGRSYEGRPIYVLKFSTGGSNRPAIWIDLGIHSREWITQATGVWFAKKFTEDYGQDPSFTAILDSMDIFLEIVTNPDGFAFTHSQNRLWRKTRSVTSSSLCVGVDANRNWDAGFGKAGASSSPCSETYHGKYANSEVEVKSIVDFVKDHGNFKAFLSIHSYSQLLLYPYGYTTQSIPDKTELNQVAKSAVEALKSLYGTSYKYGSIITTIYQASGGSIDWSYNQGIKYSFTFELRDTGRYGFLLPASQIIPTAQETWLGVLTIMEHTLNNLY
The test is described as follows: carboxypeptidase inhibition (Ki); reference wild PCI.

As for EQHADPICNKPCKTHDDCSGAWFCQACWNSARTCGP [PCIdelY37V38G39], the decrease of the inhibitory capacity against the wild form (orders of magnitude) amounted to 3.

The values are drawn from patent US6379959.
